Test results: the supplement of paper PMC9732359
± gives the uncertainty stated by the source.

Test: protein stability index of a GFP-peptide fusion (yeast GPS) (PSI 1-4); higher = more stable; sorted into four equal gates, so the index is relative within each strain
Summary of the method: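 Mid-log yeast cultures in leucine-free medium, carrying a pooled plasmid library, were sorted into four equal gates by their GFP/Cherry fluorescence ratio. Each plasmid expressed Cherry along with GFP fused upstream of a tiled 17-residue yeast protein peptide. Plasmids recovered from each gate were PCR-amplified and Illumina-sequenced, with reads assigned to strains by barcodes. The protein stability index was obtained by summing each gate's read frequency weighted by its gate number.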

| Sequence | protein stability index (doa10∆) | protein stability index (pdr5∆) | protein stability index (san1∆) | protein stability index (ubr1∆) |
| --- | --- | --- | --- | --- |
| TEDRYNEYVAKVSAREK [FAS2] | 3.2 ± 0.086 | 3.14 ± 0.074 | 3.04 ± 0.094 | 3.3 ± 0.06 |
| DKKASMIISGSRDKTIK [ASC1] | 2.2 ± 0.17 | 2.54 ± 0.092 | 2.63 ± 0.096 | 1.96 ± 0.079 |
| VHNTVAAGNASSLPPGE [SNF5] | 2.82 ± 0.094 | 2.75 ± 0.071 | 2.94 ± 0.06 | 2.75 ± 0.077 |
| NAVISHANAAAVYFADT [SIN4] | 2.03 ± 0.049 | 2.29 ± 0.047 | 2.06 ± 0.051 | 2.3 ± 0.034 |
| DPKFRRNHKHALHGTAK [RPL29] | 2.34 ± 0.025 | 2.602 ± 0.022 | 2.478 ± 0.024 | 2.636 ± 0.019 |
| LSRPYKALKTNINFASG [CDC53] | 2.4 ± 0.049 | 2.61 ± 0.062 | 2.4 ± 0.057 | 2.66 ± 0.048 |
| FDVMIDEESLVKYMPEQ [RPO21] | 2.3 ± 0.15 | 2.04 ± 0.16 | 1.86 ± 0.26 | 2.13 ± 0.058 |
| NGAGGLMYATDWQMMTS [CSL4] | 3.23 ± 0.15 | 2.93 ± 0.12 |  | 2.99 ± 0.09 |
| SIEFAKREKRVFLKHSL [RPN6] | 3.24 ± 0.16 | 3.4 ± 0.17 | 2.87 ± 0.11 | 2.7 ± 0.098 |
| CTESTRENALYDYYALQ [SNF2] | 1.83 ± 0.078 | 2.25 ± 0.064 | 2.99 ± 0.048 | 2.91 ± 0.083 |
| QKDQDGRIPLHWSVSFQ [NAS6] | 3.29 ± 0.093 | 3.33 ± 0.079 | 3 ± 0.13 | 3.06 ± 0.053 |
| LEFARITPMNDDQCMLI [SIN4] | 2.63 ± 0.074 | 2.82 ± 0.089 | 2.25 ± 0.051 | 3.31 ± 0.067 |
| KKEATKPAFSFGINTNT [YLR335W/NUP2] | 2.99 ± 0.062 | 3.02 ± 0.086 | 3.26 ± 0.038 | 3.35 ± 0.056 |
| HVKNFGFANSLTFILGQ [YML031W/NDC1] | 1.56 ± 0.12 | 1.74 ± 0.076 | 1.42 ± 0.13 | 2.27 ± 0.059 |
| NEHSTSYTFRSEKGLLS [FAS1] | 2.6 ± 0.047 | 2.36 ± 0.054 | 2.7 ± 0.042 | 2.46 ± 0.033 |
| KEKKELQMRLKESEISH [YIL149C/MLP2] | 2.6 ± 0.22 | 2.94 ± 0.17 | 3.04 ± 0.17 | 3.04 ± 0.15 |
| SEGYQKTFSRLDALTRH [RPN4] | 1.17 ± 0.091 | 1.56 ± 0.15 | 1.06 ± 0.24 |  |
| SNTEPIPRSNRHGSVVE [MED1] | 2.23 ± 0.17 | 3.22 ± 0.23 | 2.72 ± 0.17 |  |
| AFALAKEKAPTIIFIDE [RPT5] | 2.79 ± 0.12 | 2.78 ± 0.12 | 2.83 ± 0.14 | 2.88 ± 0.086 |
| VALTGLLIRSKTEDPKG [YML031W/NDC1] | 1.71 ± 0.041 | 2.21 ± 0.042 | 1.73 ± 0.052 | 2.28 ± 0.032 |
| LGKCSRITDASLFQLSK [GRR1] | 3.04 ± 0.11 | 3.14 ± 0.11 | 3.14 ± 0.093 | 2.88 ± 0.063 |
| VHGKAPMLMANNDVFTI [SSN3] | 2.79 ± 0.068 | 2.47 ± 0.07 | 2.48 ± 0.095 | 2.72 ± 0.074 |
| GAASNRTKFVRSLVREI [RPL36A] | 3.22 ± 0.27 | 2.59 ± 0.25 | 3.02 ± 0.13 | 3.25 ± 0.12 |
| SAKGPEIIPLQDYYIIG [MED6] | 3.18 ± 0.098 | 3.14 ± 0.054 | 3.14 ± 0.044 | 3.31 ± 0.063 |
| NLMILNTKVPVDIVNQW [YML103C/NUP188] | 1.68 ± 0.071 | 2.12 ± 0.084 | 1.84 ± 0.13 | 2.08 ± 0.055 |
| LIIRNDSLSGAVIAAIM [RPT3] | 3.17 ± 0.11 | 3.09 ± 0.11 | 2.94 ± 0.21 | 3.12 ± 0.098 |
| DMDAESNESQNGKDSEI [SMC3] | 3.42 ± 0.12 | 3.22 ± 0.096 | 2.89 ± 0.1 | 3.31 ± 0.038 |

| Sequence | protein stability index (doa10∆) | protein stability index (pdr5∆) | protein stability index (san1∆) | protein stability index (ubr1∆) |
| --- | --- | --- | --- | --- |
| TQSGGVRPFGVSTLIAG [PRE6] | 1.5 ± 0.14 | 1.72 ± 0.12 | 1.75 ± 0.17 | 1.43 ± 0.081 |
| RNDKTLELMDSKKTGQF [POP1] | 3.34 ± 0.069 | 3.44 ± 0.06 | 3.18 ± 0.064 | 3.37 ± 0.05 |
| GQSINDSLKKLLPQWDD [ARP9] | 2.88 ± 0.047 | 2.86 ± 0.044 | 2.74 ± 0.045 | 2.88 ± 0.04 |
| PSPYKTTVYRYSAAKKI [YAR002W/NUP60] | 1.69 ± 0.051 | 1.98 ± 0.05 | 1.49 ± 0.069 | 1.67 ± 0.042 |
| DELRKQELISKAFTNWN [ISW2] | 2.04 ± 0.065 | 2.45 ± 0.078 | 2.4 ± 0.089 | 2.23 ± 0.067 |
| TSSQKEPFFLVTKITDM [SRB8] | 2.36 ± 0.059 | 2.72 ± 0.071 | 2.52 ± 0.054 | 2.62 ± 0.054 |
| HLALEIGEVYNDQVEKD [RPN1] |  |  | 3.41 ± 0.19 |  |
| NLKYLDNSNVMTVKLES [RGR1] | 2.23 ± 0.18 | 1.87 ± 0.11 | 2.04 ± 0.19 | 2.66 ± 0.12 |
| HNSVKRYQIMLPEQLKS [SNM1] | 1.16 ± 0.042 | 1.59 ± 0.052 | 1.44 ± 0.1 | 1.74 ± 0.041 |
| WAGKRLWDQDIAIAGTG [COR1] | 3.25 ± 0.1 | 3.11 ± 0.12 | 2.56 ± 0.1 | 2.66 ± 0.072 |
| VRLPTKVLKISTRKTPN [RPS20] | 1.83 ± 0.087 | 2.22 ± 0.089 | 1.7 ± 0.15 | 2.42 ± 0.084 |
| KDNVEHLVMRAISLGLL [RPN9] | 2.43 ± 0.075 | 2.92 ± 0.074 | 2.48 ± 0.071 | 2.76 ± 0.059 |
| YHGISKNDNIKKSVNKL [POP6] | 2.7 ± 0.064 | 2.75 ± 0.049 | 2.77 ± 0.05 | 2.85 ± 0.046 |
| QEDELDEGTALSRLGLK [RPB10] | 3.41 ± 0.073 | 3.38 ± 0.086 | 3.5 ± 0.058 | 3.06 ± 0.079 |
| ERKKQSDVLRFLQRVRV [RPL15B] | 2.08 ± 0.06 | 2.43 ± 0.062 | 2.04 ± 0.066 | 2.12 ± 0.043 |
| DFLRKATAFNKTRGPFH [RPL16A] | 2.19 ± 0.16 | 2.96 ± 0.2 | 3.04 ± 0.086 | 3.03 ± 0.12 |
| KYLYLRAVGGEVGASAA [RPL12A] | 1.66 ± 0.18 | 1.99 ± 0.13 | 1.64 ± 0.13 | 2.11 ± 0.1 |
| LVHDGLARGLRESTKAL [RPS12] | 3.41 ± 0.091 | 3.52 ± 0.15 | 3.19 ± 0.17 | 2.83 ± 0.17 |
| AMTAAEHGLHAPAYAWS [CYT1] | 3.16 ± 0.13 | 3.31 ± 0.097 | 2.8 ± 0.13 | 3.27 ± 0.064 |
| AAPAAAAAEIADEPVKA [FAS2] | 2.55 ± 0.063 | 2.74 ± 0.067 | 2.56 ± 0.078 | 2.53 ± 0.045 |
| SKLLYDDVTCDKLSVSE [SIN4] | 3.08 ± 0.07 | 3.02 ± 0.053 | 2.86 ± 0.051 | 3.23 ± 0.043 |
| TVHEMEEELKKLRDHEP [SMC4] | 3.54 ± 0.27 | 3.26 ± 0.22 |  | 3.62 ± 0.2 |
| RSYDLTRHQNTIHAKRK [RPN4] | 2.48 ± 0.061 | 2.48 ± 0.065 | 2.52 ± 0.071 | 2.53 ± 0.07 |
| DYNDVEVNSKKKNKRAL [BRR2] | 3.07 ± 0.098 | 2.95 ± 0.07 | 2.78 ± 0.12 | 3.02 ± 0.061 |
| WVFSYLRWFELKPKLYY [SIR3] | 1.93 ± 0.081 | 1.96 ± 0.071 | 2.5 ± 0.19 | 2.49 ± 0.054 |
| DEEESNDEKQKAQDVDV [RPN13] | 3.33 ± 0.12 | 3.42 ± 0.077 | 3.34 ± 0.044 | 3.32 ± 0.049 |
